Tested on: T regulatory phenotype cells
Parameters: species or system non-human primate
Conditions: in vivo

B1: daclizumab (antibody, chains of the INN, looked up, V domains shown)
VH: QVQLVQSGAEVKKPGSSVKVSCKASGYTFTSYRMHWVRQAPGQGLEWIGYINPSTGYTEYNQKFKDKATITADESTNTAYMELSSLRSEDTAVYYCARGGGVFDYWGQGTLVTVSS
VL: DIQMTQSPSTLSASVGDRVTITCSASSSISYMHWYQQKPGKAPKLLIYTTSNLASGVPARFSGSGSGTEFTLTISSLQPDDFATYYCHQRSTYPLTFGQGTKVEVK
With B1 the “time of maximum depletion in % and number of T regulatory phenotype cells” value was 2 weeks and the “time until which depletion of T regulatory phenotype cells lasted” value was 4 weeks.
